One substance from PMC5849677 can be followed below.

The target in assay [1] is native hC3d purified from human serum (human). Briefly: SPR; Biacore; hC3d or C3d(g)-Fc fusions immobilised by amine coupling (94.3-96.2 RU); Fc-fusion analytes 0.195-50 nM in HBS-EP+, physiological salt, 360 s injection; steady state affinity model; apparent KD. (In general: SPR reads the build-up and loss of mass on a sensor chip optically.)
Assay [2] addresses hC3d,g (s)-Fc (Cys to Ser variant of hC3dg-Fc) (human) (UniProt P01024). The description is as above.

As for “hCR2 (SCR1-4)-Fc (from UniProt P20023 21-273) (Fc fusion)”, the Kd in assay [1] worked out at 10.6 nM; in assay [2], 2.6 nM.
